The labels stand for the following.
T1: hCEACAM5 A2-B2 domain (human, UniProt P06731 323-500, limits assumed)
T1 sequence: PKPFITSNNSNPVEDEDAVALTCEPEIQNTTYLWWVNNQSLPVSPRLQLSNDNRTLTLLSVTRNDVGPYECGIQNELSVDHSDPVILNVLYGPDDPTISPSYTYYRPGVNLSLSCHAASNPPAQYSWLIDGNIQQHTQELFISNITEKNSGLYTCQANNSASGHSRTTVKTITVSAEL

T2: hCEACAM5 A3-B3 domain (human, UniProt P06731 501-685, limits assumed)
T2 sequence: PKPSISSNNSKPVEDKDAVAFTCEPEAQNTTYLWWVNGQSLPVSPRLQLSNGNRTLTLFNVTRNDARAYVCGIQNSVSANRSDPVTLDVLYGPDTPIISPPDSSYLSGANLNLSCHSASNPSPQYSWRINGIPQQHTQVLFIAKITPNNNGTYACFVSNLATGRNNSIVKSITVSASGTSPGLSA

T3: human CEACAM5 on cells (human, UniProt P06731 35-685)
T3 construct: tumour cell lines with endogenous CEACAM5, or B16F10 engineered to express hCEACAM5; also called CEACAM5 on MKN-45, HPAF-II, SK-CO-1, LoVo, BxPC-3, Kato-III, LS-174T, ZR-75-30; hCEACAM5-B16F10
T3 sequence: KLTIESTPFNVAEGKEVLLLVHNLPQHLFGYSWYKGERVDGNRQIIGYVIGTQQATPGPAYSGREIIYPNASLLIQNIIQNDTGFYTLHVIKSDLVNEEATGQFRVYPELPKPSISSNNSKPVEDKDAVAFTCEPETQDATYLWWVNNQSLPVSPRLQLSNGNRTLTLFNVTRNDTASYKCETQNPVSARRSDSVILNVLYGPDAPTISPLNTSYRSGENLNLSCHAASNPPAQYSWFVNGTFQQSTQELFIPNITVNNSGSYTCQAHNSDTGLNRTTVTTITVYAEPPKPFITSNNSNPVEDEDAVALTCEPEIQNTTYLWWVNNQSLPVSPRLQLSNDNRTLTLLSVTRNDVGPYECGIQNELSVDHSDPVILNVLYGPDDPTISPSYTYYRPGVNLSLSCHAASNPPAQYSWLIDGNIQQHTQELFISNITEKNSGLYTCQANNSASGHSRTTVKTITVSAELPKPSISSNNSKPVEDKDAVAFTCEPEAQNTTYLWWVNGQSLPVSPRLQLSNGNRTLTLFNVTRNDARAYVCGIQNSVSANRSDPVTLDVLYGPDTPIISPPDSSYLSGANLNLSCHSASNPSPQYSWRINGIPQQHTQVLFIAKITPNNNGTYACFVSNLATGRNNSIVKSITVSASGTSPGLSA

B1: AB0466 F3' CEACAM5 TriNKET (bispecific antibody, human IgG1, kappa)
chain: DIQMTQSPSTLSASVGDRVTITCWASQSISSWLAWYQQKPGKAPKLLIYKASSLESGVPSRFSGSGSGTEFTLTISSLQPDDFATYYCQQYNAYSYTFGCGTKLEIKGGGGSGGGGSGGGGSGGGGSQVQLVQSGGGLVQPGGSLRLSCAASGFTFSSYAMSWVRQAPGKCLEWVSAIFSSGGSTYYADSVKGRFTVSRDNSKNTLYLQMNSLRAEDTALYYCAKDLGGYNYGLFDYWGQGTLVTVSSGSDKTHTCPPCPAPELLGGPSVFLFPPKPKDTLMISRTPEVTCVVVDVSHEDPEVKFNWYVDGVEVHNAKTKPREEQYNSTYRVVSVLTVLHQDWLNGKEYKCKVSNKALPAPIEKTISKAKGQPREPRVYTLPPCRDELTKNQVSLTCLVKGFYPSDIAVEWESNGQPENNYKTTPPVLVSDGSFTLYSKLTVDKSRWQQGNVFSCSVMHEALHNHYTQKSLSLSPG
heavy: EVQLVESGGGLVKPGGSLRLSCAASGFTFSSYSMNWVRQAPGKGLEWVSSISSSSSYIYYADSVKGRFTISRDNAKNSLYLQMNSLRAEDTAVYYCARGAPIGAAAGWFDPWGQGTLVTVSSASTKGPSVFPLAPSSKSTSGGTAALGCLVKDYFPEPVTVSWNSGALTSGVHTFPAVLQSSGLYSLSSVVTVPSSSLGTQTYICNVNHKPSNTKVDKKVEPKSCDKTHTCPPCPAPELLGGPSVFLFPPKPKDTLMISRTPEVTCVVVDVSHEDPEVKFNWYVDGVEVHNAKTKPREEQYNSTYRVVSVLTVLHQDWLNGKEYKCKVSNKALPAPIEKTISKAKGQPREPQVCTLPPSRDELTENQVSLTCLVKGFYPSDIAVEWESNGQPENNYKTTPPVLDSDGSFFLYSWLTVDKSRWQQGNVFSCSVMHEALHNHYTQKSLSLSPG
light: DIQMTQSPSSVSASVGDRVTITCRASQGISSWLAWYQQKPGKAPKLLIYAASSLQSGVPSRFSGSGSGTDFTLTISSLQPEDFATYYCQQGVSFPRTFGGGTKVEIKRTVAAPSVFIFPPSDEQLKSGTASVVCLLNNFYPREAKVQWKVDNALQSGNSQESVTEQDSKDSTYSLSSTLTLSKADYEKHKVYACEVTHQGLSSPVTKSFNRGEC
B2: AB0411 F3' CEACAM5 TriNKET (bispecific antibody, human IgG1, kappa)
chain: DIQLTQSPATLSVSPGERATLSCRASQSVSSSYLAWYQQKPGQAPRLLIYGASSRATGIPDRFSGSGSGTDFTLTISRLEPEDFAVYYCQQYNNWPLTFGCGTKVEIKGGGGSGGGGSGGGGSGGGGSQVQLVQSGGGLVQPGGSLRLSCAASGFTFTSYAMSWVRQAPGKCLEWVSAISGTGDSTFYADSVKGRFTFSRDNSKNTLYLQMNSLRAEDTAVYYCAKDLGWLQYGLFDYWGQGTLVTVSSGSDKTHTCPPCPAPELLGGPSVFLFPPKPKDTLMISRTPEVTCVVVDVSHEDPEVKFNWYVDGVEVHNAKTKPREEQYNSTYRVVSVLTVLHQDWLNGKEYKCKVSNKALPAPIEKTISKAKGQPREPRVYTLPPCRDELTKNQVSLTCLVKGFYPSDIAVEWESNGQPENNYKTTPPVLVSDGSFTLYSKLTVDKSRWQQGNVFSCSVMHEALHNHYTQKSLSLSPG
heavy: B1 heavy
light: B1 light
B3: AB0621 F3' CEACAM5 TriNKET (bispecific antibody, human IgG1, kappa)
chain: DIVMTQSPDSLAVSLGERATINCKSSHSLLYGNFQNNYLAWYQQKPGQPPKLLIYWASTRESGVPDRFSGSGSGTDFTLTISSLQAEDVAVYYCQQYYSYPYTFGCGTKLEIKGGGGSGGGGSGGGGSGGGGSQVQLVQSGAEVKKPGASVKVSCKASGYTFTAYTIHWVRQAPGQCLEWMGYINPSSGYTEYNQKFKDRTTLTADTSISTAYMELSRLRSDDTAVYYCTREGGLLWFDYWGQGTLVTVSSGSDKTHTCPPCPAPELLGGPSVFLFPPKPKDTLMISRTPEVTCVVVDVSHEDPEVKFNWYVDGVEVHNAKTKPREEQYNSTYRVVSVLTVLHQDWLNGKEYKCKVSNKALPAPIEKTISKAKGQPREPRVYTLPPCRDELTKNQVSLTCLVKGFYPSDIAVEWESNGQPENNYKTTPPVLVSDGSFTLYSKLTVDKSRWQQGNVFSCSVMHEALHNHYTQKSLSLSPG
heavy: B1 heavy
light: B1 light
B4: AB0264 F3' CEACAM5 TriNKET (bispecific antibody, human IgG1, kappa)
chain: B3 chain with S210P
heavy: B1 heavy
light: B1 light

Substitutions are numbered along the chain they refer to.

The first test concerns the target T1, hCEACAM5 A2-B2 domain. Briefly: SPR with hCEACAM5 domains. The protocol: (§1) If the protein domain was an Fc fusion, AB0411, AB0466, AB0264, or AB0621 were captured using an anti-human Fab antibody (Cytiva, #28958325) immobilized onto a CM5 chip. The various hCEACAM5 protein domains (N-term, A1-B1, A2, B2, A3, or B3) were titrated over the captured TriNKETs at 50 μL/min for 180 sec of association and 300 sec of dissociation. The assay was run at 25° C. in HBS-EP+ running buffer, pH 7.4. The surface of the CM5 chip was regenerated using […] glycine pH 2.1.
(§2) The various hCEACAM5 protein domains were titrated over the captured antibody at 50 μL/min for 180 sec of association and 300 sec of dissociation. The assay was run at 37° C. in HBS-EP+ running buffer, pH 7.4. The surface of the CM5 chip was regenerated using 3M MgCl₂.
For the molecule B1, the binding result is given as “no binding”.

Turning to B2, the binding result is on record as “no binding”.

Regarding B3, the binding result is “no binding”.

On to B4, for which the binding result is “no binding”.

The target in the next test is T2, hCEACAM5 A3-B3 domain. In words: SPR with hCEACAM5 domains. The protocol: as §1, §2
With B1, the binding result is recorded as “no binding”.

Consider B2, for which the binding result is given as “no binding”.

As for B3, the binding result is recorded as “no binding”.

In the case of B4, the binding result is reported as “no binding”.

Another test concerns the target T3, human CEACAM5 on cells. In words: flow cytometry, HPAF-II cells. The protocol:
MKN-45 and HPAF-II human cancer cell lines were diluted into FACS buffer and 100,000 cells of each cell type were seeded per well in duplicate into 96-well plates for FACS staining. The cells were washed with PBS, incubated in a 1:2000 dilution of live/dead dye in PBS for 15 minutes, and then washed with FACS buffer. AB0264, AB0411, AB0466, and AB0621 were diluted into FACS buffer, and 50 μl of each diluted TriNKET was added to the cells. After incubation on ice for 30-120 minutes, the cells were washed with FACS buffer. Anti-human IgG-Fc secondary antibody was diluted into FACS buffer, and 50 μl was added per well for detection of the bound TriNKETs. The cells were incubated for 30-60 minutes on ice and then washed with FACS buffer. 50 μl of fixation buffer was added to each well and the cells were incubated for 10 minutes at room temperature. The cells were washed with FACS buffer and resuspended in FACS buffer for analysis with ThermoFisher Attune NxT, BD FACS Celesta SN #H66034400085, or BD FACS Celesta SN #H66034400160.
Cells of interest were identified using FSC vs. SSC plot and an appropriately shaped gate was drawn around the cells. Within the gated cells, doublet cells were removed by viewing FSC-H vs. FSC-A plot. Within the single cell population, live cells were gated. Within the live gate, the median fluorescence intensity (MFI) of each sample and the secondary-only control was calculated. Fold-over-background (FOB) was calculated as the ratio of test article MFI over secondary-only background MFI. Data were fit to a four-parameter non-linear regression curve using GraphPad Prism 7.0.
As usually defined, the EC50 is the concentration at which the effect is half-maximal. The low end stands for greater potency, the high end for weaker potency. As to B1, a half-maximal response (EC50) required 0.00761 µM and the “Max FOB” value stood at 49 fold over background.

With B2, it took 0.00836 µM to reach a half-maximal effect (EC50) and the “Max FOB” value turned out to be 54.9 fold over background.

In the case of B3, it took 0.0181 µM to reach a half-maximal effect (EC50) and the “Max FOB” value was found to be 24.9 fold over background.

For B4, the midpoint of the response, the EC50, lay at 0.0203 µM and the “Max FOB” value is 27.9 fold over background.

In a further test the target is T4, Cyno FcγRIIIA (cynomolgus monkey, UniProt Q8SPW2 17-208, limits assumed, biotinylated).
T4 construct: also called cynomolgus CD16A
T4 sequence (Q8SPW2 17-208 limits assumed): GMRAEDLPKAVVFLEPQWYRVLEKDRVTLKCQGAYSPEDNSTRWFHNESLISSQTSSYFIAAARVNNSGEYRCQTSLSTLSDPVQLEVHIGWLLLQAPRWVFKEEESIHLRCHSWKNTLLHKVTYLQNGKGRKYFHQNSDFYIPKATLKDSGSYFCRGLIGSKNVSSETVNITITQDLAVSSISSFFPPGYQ
Briefly: SPR, biotin-CD16A on SA chip, 25C, pH 7.4. Here is the method:
(§3) Binding to human and cynomolgus CD16A was assessed using biotinylated CD16A captured on a streptavidin (SA) sensor chip (Cytiva, #BR100531). AB0411, AB0466, or AB0621 was titrated from 1500 nM at 25° C. at 30 μL/min for 150 sec association followed by 300 sec dissociation. The surface of the chip was regenerated with 2 mM sodium hydroxide for 5 sec at 30 μL/min. Running buffer was HBS-EP+. […] The V158 isoform bound ˜2- to 3-fold tighter than the F158 isoform as expected.
On the technique in general: SPR reads the build-up and loss of mass on a sensor chip optically.
A word on the Kd: it is the free concentration of one partner at which half of the binding sites on the other are occupied at equilibrium, for simple one-to-one binding. A lower Kd goes with a tighter complex. One may read the koff as the first-order rate constant of dissociation. A low value points to a long-lived complex. Broadly, the kon is the rate constant with which the complex forms. Lower therefore signals slow association. Take B1: the Kd came out at 0.14 µM, the koff came to 0.11 s⁻¹ and the kon was found to be 790000 M⁻¹ s⁻¹.

The molecule B2 returned a Kd of 0.1 µM, a koff of 0.075 s⁻¹ and a kon of 730000 M⁻¹ s⁻¹.

The molecule B3 had a Kd of 0.16 µM, a koff of 0.11 s⁻¹ and a kon of 720000 M⁻¹ s⁻¹.

For another test, the target named is T5, human CD16A (FcγRIIIA) V158 (human, UniProt P08637 17-208, limits assumed, biotinylated in the assay of Table 21).
T5 construct: also called CD16A (V158/V176)
T5 sequence (P08637 17-208 F176V limits assumed): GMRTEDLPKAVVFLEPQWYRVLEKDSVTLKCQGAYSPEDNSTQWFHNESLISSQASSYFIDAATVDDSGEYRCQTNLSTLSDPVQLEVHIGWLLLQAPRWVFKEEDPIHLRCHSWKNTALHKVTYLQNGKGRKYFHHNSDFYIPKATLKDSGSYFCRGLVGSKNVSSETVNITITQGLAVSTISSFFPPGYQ
In words: SPR, biotin-CD16A on SA chip, 25C, pH 7.4. The protocol: as §3
Molecule B1 showed a Kd of 0.26 µM, a koff of 0.078 s⁻¹ and a kon of 300000 M⁻¹ s⁻¹.

B2 returned a Kd of 0.12 µM, a koff of 0.029 s⁻¹ and a kon of 230000 M⁻¹ s⁻¹.

For the molecule B3, the affinity, expressed as Kd, was 0.28 µM; the koff came out at 0.072 s⁻¹; the kon turned out to be 260000 M⁻¹ s⁻¹.

For another test, the target named is human CD16A (FcγRIIIA) F158 (human, UniProt P08637 17-208, limits assumed, biotinylated). In words: SPR, biotin-CD16A on SA chip, 25C, pH 7.4. The protocol: as §3
Chain of human CD16A (FcγRIIIA) F158 (P08637 17-208 limits assumed): as the sequence (P08637 17-208 F176V limits assumed) above, with V160F counted along it
The molecule B1 returned a Kd of 0.69 µM, a koff of 0.21 s⁻¹ and a kon of 310000 M⁻¹ s⁻¹.

Regarding B2, the dissociation constant (Kd) turned out to be 0.37 µM, the koff is 0.086 s⁻¹ and the kon is 220000 M⁻¹ s⁻¹.

Take B3: the Kd was found to be 0.64 µM, the koff was 0.19 s⁻¹ and the kon stood at 300000 M⁻¹ s⁻¹.

For the origin of these results see US20240124607A1 (Merck Sharp & Dohme, published 2024).
